Source: paper PMC8632972

Assays:
[1] = target: SEC24A tagged with Myc; test: PLA; conditions: n = 3 independent experiments, n = 8 independent images quantified; parent: est. 4.5; read off a plot
[2] = target: SCG5 tagged with cYFP (UniProt P27682); test: PLA; conditions: n = 4 independent experiments, n = 8 independent images quantified; parent: est. 100; read off a plot
[3] = target: CPE tagged with cYFP (UniProt P15087); test: BiFC quantified by flow cytometry; conditions: n = 5 independent experiments; parent: est. 100; read off a plot
[4] = target: NPY tagged with cYFP (UniProt P07808); test: BiFC quantified by flow cytometry; conditions: n = 5 independent experiments; parent: est. 100; read off a plot
[5] = target: SCG5 tagged with cYFP (UniProt P27682); test: BiFC quantified by flow cytometry; conditions: n = 5 independent experiments; parent: est. 100; read off a plot
[6] = target: proinsulin tagged with C-terminal segment of YFP (cYFP) (UniProt P01322); test: BiFC quantified by flow cytometry; conditions: n = 5 independent experiments; parent: est. 100; read off a plot
Sequence of UniProt P01322 (P01322 25-110): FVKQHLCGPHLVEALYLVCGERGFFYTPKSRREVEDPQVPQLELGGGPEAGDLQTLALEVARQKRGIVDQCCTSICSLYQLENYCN

Sequence of UniProt P27682 (P27682 25-210): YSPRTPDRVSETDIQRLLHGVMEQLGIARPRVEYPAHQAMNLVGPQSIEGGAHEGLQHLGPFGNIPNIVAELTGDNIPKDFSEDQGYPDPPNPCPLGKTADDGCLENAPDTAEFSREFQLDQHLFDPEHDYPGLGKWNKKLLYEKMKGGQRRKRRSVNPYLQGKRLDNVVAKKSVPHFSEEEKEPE
Sequence of UniProt P15087 (P15087 28-476): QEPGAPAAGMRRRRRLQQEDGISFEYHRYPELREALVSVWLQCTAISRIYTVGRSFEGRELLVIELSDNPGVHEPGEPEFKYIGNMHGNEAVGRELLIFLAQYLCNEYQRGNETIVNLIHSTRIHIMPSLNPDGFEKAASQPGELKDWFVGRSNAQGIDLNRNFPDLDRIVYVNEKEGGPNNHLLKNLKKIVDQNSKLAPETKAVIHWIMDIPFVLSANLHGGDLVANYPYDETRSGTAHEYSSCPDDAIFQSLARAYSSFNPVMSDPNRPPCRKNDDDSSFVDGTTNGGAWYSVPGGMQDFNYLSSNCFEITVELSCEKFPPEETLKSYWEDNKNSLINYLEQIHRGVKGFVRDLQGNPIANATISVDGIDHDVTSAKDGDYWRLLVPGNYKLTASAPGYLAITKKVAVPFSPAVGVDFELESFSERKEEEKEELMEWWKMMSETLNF

| response (puncta (>1µm2) per cell) [1] | response (puncta (>1µm2) per cell) [2] | percent of parent [3] [%] | percent of parent [4] [%] | percent of parent [5] [%] | percent of parent [6] [%] | Substance |
| --- | --- | --- | --- | --- | --- | --- |
| 0.13 | – | – | – | – | – | HA-tagged WFS1 E158K |
| 0.13 | – | – | – | – | – | HA-tagged WFS1 E169K |
| – | 56 | – | – | – | – | HA-tagged WFS1 E809K |
| – | 7 | – | – | – | – | HA-tagged WFS1 E830A |
| – | 35 | – | – | – | – | HA-tagged WFS1 G695V |
| – | 55 | – | – | – | – | HA-tagged WFS1 P724L |
| – | – | 46 | 41 | 71 | 70 | WFS1 tagged with N-terminal segment of YFP (nYFP) E809K |
| – | – | 2 | 3 | 8 | 23 | WFS1 tagged with N-terminal segment of YFP (nYFP) E830A |
| – | – | 41 | 33 | 56 | 42 | WFS1 tagged with N-terminal segment of YFP (nYFP) G695V |
| – | – | 71 | 49 | 54 | 61 | WFS1 tagged with N-terminal segment of YFP (nYFP) P724L |
